Source: paper PMC11748958

Molecular target: human ERG potassium channel (human) (UniProt Q12809)
UniProt Q12809, sequence (Q12809 whole entry): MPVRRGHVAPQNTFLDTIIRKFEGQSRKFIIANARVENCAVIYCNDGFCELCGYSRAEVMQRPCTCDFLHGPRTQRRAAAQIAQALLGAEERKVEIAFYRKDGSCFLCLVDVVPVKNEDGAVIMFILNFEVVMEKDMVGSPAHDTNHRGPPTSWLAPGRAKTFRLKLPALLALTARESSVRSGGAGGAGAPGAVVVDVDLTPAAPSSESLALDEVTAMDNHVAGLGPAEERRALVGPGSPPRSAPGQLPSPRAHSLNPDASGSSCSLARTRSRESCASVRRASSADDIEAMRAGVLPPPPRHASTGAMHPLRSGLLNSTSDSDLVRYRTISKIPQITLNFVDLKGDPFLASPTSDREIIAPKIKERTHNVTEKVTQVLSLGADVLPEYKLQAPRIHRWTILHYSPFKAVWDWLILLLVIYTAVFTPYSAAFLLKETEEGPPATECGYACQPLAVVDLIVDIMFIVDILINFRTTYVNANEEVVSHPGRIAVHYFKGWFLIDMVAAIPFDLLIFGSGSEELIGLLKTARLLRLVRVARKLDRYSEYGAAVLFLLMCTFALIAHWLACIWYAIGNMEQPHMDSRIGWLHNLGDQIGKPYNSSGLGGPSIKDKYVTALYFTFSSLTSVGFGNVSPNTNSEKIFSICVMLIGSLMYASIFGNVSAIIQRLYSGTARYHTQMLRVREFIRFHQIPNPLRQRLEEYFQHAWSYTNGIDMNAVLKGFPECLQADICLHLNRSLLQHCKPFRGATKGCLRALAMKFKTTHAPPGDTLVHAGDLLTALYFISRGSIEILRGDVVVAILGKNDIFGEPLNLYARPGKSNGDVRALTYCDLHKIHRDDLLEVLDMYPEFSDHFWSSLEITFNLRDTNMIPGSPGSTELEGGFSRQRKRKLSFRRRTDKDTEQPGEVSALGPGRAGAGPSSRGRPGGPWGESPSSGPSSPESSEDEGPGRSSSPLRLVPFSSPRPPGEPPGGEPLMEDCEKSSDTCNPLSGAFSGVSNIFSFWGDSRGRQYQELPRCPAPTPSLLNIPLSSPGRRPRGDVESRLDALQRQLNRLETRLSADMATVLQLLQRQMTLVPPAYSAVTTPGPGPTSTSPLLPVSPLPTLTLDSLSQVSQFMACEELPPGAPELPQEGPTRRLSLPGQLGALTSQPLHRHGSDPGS

B1: recombinant Phα1β (peptide)
chain: MACIPRGEICTDDCECCGCDNQCYCPPGSSLGIFKCSCAHANKYFCNRKKEKCKKA
B1 showed an IC50 of inhibition of hERG channel activity, thallium flux (FLIPR Potassium Assay) in HEK293-hERG cells greater than 900 pmol and a percent inhibition of hERG channel activity, thallium flux (FLIPR Potassium Assay) in HEK293-hERG cells, Phα1β 56-900 pM for 30 minutes; highest value at 900 pM of 13.6%.
